The series concerns the target CMV Colburn assembly protein precursor (product of APNG.5).

B1: LM8, subclone of APNG1 expressing amino acids 1-249 (protein)
chain: MADPVYVGGFLVRYDEPPGEAELFLPSGVVDRWLRDCRGPLPLNVNHDESATVGYVAGLQNVRAGLFCLGRVTSPKFLDIVQKASEKSELVSRGPPSESSLRPDGVLEFLSGSYSGLSLSSRRDINAADGAAGDAETACFKHVALCSVGRRRGTLAVYGRQPDWVMERFPDLTEADREALRNQLSGSGEVAAKESAESSAAAAVDPFQSDSYGLLGNSVDALYIQERLPKLRYDKRLVGVTARESYVKA
As to B1, the proteolytic activity entry is “Both are proteolytically active using assembly protein precursor as a substrate”.

B2: LM7, subclone of APNG1 expressing amino acids 1-280 (protein)
chain: MADPVYVGGFLVRYDEPPGEAELFLPSGVVDRWLRDCRGPLPLNVNHDESATVGYVAGLQNVRAGLFCLGRVTSPKFLDIVQKASEKSELVSRGPPSESSLRPDGVLEFLSGSYSGLSLSSRRDINAADGAAGDAETACFKHVALCSVGRRRGTLAVYGRQPDWVMERFPDLTEADREALRNQLSGSGEVAAKESAESSAAAAVDPFQSDSYGLLGNSVDALYIQERLPKLRYDKRLVGVTARESYVKASVSPAEQETCDIKVEKERPKEPEQSHVPTES
With B2, the proteolytic activity result was “Both are proteolytically active using assembly protein precursor as a substrate”.

The values above are taken from patent publication US6410296.
